From patent US20090324646A1 (INSTITUT PASTEUR, published 2009) come the findings set out here.

Series [1] concerns the target NF-κB p65 (endogenous, Caco 2 nuclear extracts) (human, UniProt Q04206 1-551). Nature of the series: supershift EMSA of Caco 2 nuclear extracts with anti-p50 and anti-p65 antibodies. A general note: A gel shift assay detects complexes by their altered migration in electrophoresis.
In series [2] the test system is 33P-labeled Erk2 (GST-Erk2 fusion protein phosphorylated in vitro by MEK1).
Series [3] addresses peptide mimicking the histone H3 tail carrying pS10 modification.
Series [4] addresses histone H3 purified from calf thymus, P68432.
For series [5], the target named is 33P-labeled Erk2 (GST-Erk2 fusion protein phosphorylated in vitro by MEK1). The source holds these as a separate data set.

Like-named read-outs stand apart in the source and are kept apart here.

NF-κB p65 (endogenous, Caco 2 nuclear extracts), sequence (Q04206 whole entry, the tested form may be a part): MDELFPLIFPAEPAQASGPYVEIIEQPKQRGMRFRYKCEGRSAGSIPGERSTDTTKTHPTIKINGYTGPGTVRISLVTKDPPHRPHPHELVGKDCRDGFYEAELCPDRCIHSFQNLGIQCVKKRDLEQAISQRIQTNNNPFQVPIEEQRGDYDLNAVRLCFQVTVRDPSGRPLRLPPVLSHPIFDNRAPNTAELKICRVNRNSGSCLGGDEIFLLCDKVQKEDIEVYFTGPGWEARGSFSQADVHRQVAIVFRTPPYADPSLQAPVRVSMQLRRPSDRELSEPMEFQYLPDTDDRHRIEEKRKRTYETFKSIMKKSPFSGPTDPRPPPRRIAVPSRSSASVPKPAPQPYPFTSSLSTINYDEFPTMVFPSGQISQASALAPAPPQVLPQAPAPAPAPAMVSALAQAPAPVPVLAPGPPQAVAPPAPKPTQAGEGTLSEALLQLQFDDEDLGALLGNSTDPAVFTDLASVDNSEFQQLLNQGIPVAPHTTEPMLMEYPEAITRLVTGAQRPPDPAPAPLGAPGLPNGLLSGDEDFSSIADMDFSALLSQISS

B1: NF-κB p50 (endogenous, Caco 2 nuclear extracts) (other)
chain: MAEDDPYLGRPEQMFHLDPSLTHTIFNPEVFQPQMALPTDGPYLQILEQPKQRGFRFRYVCEGPSHGGLPGASSEKNKKSYPQVKICNYVGPAKVIVQLVTNGKNIHLHAHSLVGKHCEDGICTVTAGPKDMVVGFANLGILHVTKKKVFETLEARMTEACIRGYNPGLLVHPDLAYLQAEGGGDRQLGDREKELIRQAALQQTKEMDLSVVRLMFTAFLPDSTGSFTRRLEPVVSDAIYDSKAPNASNLKIVRMDRTAGCVTGGEEIYLLCDKVQKDDIQIRFYEEEENGGVWEGFGDFSPTDVHRQFAIVFKTPKYKDINITKPASVFVQLRRKSDLETSEPKPFLYYPEIKDKEEVQRKRQKLMPNFSDSFGGGSGAGAGGGGMFGSGGGGGGTGSTGPGYSFPHYGFPTYGGITFHPGTTKSNAGMKHG
In the case of B1, in series [1], the binding result is recorded as “binds”.

B2: MKP1 (mammalian dual specific phosphatase, Upstate Cell Signaling) (enzyme, UniProt P28562 1-367, looked up, species assumed)
Dual specificity protein phosphatase 1: MVMEVGTLDAGGLRALLGERAAQCLLLDCRSFFAFNAGHIAGSVNVRFSTIVRRRAKGAMGLEHIVPNAELRGRLLAGAYHAVVLLDERSAALDGAKRDGTLALAAGALCREARAAQVFFLKGGYEAFSASCPELCSKQSTPMGLSLPLSTSVPDSAESGCSSCSTPLYDQGGPVEILPFLYLGSAYHASRKDMLDALGITALINVSANCPNHFEGHYQYKSIPVEDNHKADISSWFNEAIDFIDSIKNAGGRVFVHCQAGISRSATICLAYLMRTNRVKLDEAFEFVKQRRSIISPNFSFMGQLLQFESQVLAPHCSAEAGSPAMAVLDRGTSTTTVFNFPVSIPVHSTNSALSYLQSPITTSPSC
In the case of B2, in series [2], the Km (commonly the substrate concentration at which the rate is half of its maximum) is 0.229 µM; the Vmax (usually the rate approached at saturating substrate) amounted to 6.01 pM/s; the “dephosphorylation of 33P-labeled Erk2 (gel mobility in SDS-PAGE/autoradiography, Western blot)” value is “Dephosphorylation of Erk2 by both enzymes was confirmed”; the kcat (as a rule, the maximal rate divided by the concentration of active sites) came to 0.0006 s⁻¹.

B3: lambda phosphatase (protein)
chain: MRYYEKIDGSKYRNIWVVGDLHGCYTNLMNKLDTIGFDNKKDLLISVGDLVDRGAENVECLELITFPWFRAVRGNHEQMMIDGLSERGNVNHWLLNGGGWFFNLDYDKEILAKALAHKADELPLIIELVSKDKKYVICHADYPFDEYEFGKPVDHQQVIWNRERISNSQNGIVKEIKGADTFIFGHTPAVKPLKFANQMYIDTGAVFCGNLTLIQVQGEGA
As for B3, the “in vitro dephosphorylation of peptide” value in series [3] is recorded as “in contrast to the lambda phosphatase, OspF did not directly dephosphorylate these substrates”. Besides, in series [4], the “in vitro dephosphorylation (Western blot, anti-metK9-pS10 antibody)” value was “in contrast to the lambda phosphatase, OspF did not directly dephosphorylate these substrates”.

B4: OspF phosphatase (purified recombinant protein) (protein)
chain: MPIKKPCLKLNLDSLNVVRSEIPQMLSANERLKNNFNILYNQIRQYPAYYFKVASNVPTYSDICQSFSVMYQGFQIVNHSGDVFIHACRENPQSKGDFVGDKFHISIAREQVPLAFQILSGLLFSEDSPIDKWKITDMNRVSQQSRVGIGAQFTLYVKSDQECSQYSALLLHKIRQFIMCLESNLLRSKIAPGEYPASDVRPEDWKYVSYRNELRSDRDGSERQEQMLREEPFYRLMIE
On to B4, for which, in series [3], the “in vitro dephosphorylation of peptide” value was “OspF did not directly dephosphorylate these substrates, even when the enzyme concentration was increased 100 fold”. Further, the “in vitro dephosphorylation (Western blot, anti-metK9-pS10 antibody)” value in series [4] was “OspF did not directly dephosphorylate these substrates, even when the enzyme concentration was increased 100 fold”. In series [5], the Km was 0.204 µM; the Vmax came out at 9.89 pM/s; the “dephosphorylation of 33P-labeled Erk2 (gel mobility in SDS-PAGE/autoradiography, Western blot)” value is “Dephosphorylation of Erk2 by both enzymes was confirmed”; the kcat is 0.0001 s⁻¹.
